# B1: Abi-Se07 (VHH)
# VHH: QVQLVESGGGLVQAGGSLRLSCTDSGRTFSVKPMGWFRQAPGMEREFVAAASFTGVSTFYADSVKDRFTIFRDKDKNTMDLQINSLKPEDTGAYYCAGTTRTLWGSKWRDVLEYEYWGQGTQVTVSS
# notes: X2 = V or K), CDR2 ASX3TGVST (X3 = F or Y), CDR3 AGTX4RTLWGSKWRDX5X6EYEY (X4 = T or L; X5 = V or R; X6 = L or R); CDR3 is 20 amino acids long; The c-myc tag lies between the VHH and the His6 tag, so it probably stayed on the protein; Gene synthesized and cloned into pET27b; also called 0A07; anti-Salmonella sdAb; not shown: His6, C-terminal, kept
# Molecular target: T1, FliC flagellin of S. enterica serovar Typhimurium (Salmonella enterica serovar …, UniProt P06179)
# T1 construct: FliC flagellin, Salmonella enterica serovar Typhimurium; also called purified FliC; source: bought: Sigma-Aldrich
# T1 sequence (P06179 whole entry): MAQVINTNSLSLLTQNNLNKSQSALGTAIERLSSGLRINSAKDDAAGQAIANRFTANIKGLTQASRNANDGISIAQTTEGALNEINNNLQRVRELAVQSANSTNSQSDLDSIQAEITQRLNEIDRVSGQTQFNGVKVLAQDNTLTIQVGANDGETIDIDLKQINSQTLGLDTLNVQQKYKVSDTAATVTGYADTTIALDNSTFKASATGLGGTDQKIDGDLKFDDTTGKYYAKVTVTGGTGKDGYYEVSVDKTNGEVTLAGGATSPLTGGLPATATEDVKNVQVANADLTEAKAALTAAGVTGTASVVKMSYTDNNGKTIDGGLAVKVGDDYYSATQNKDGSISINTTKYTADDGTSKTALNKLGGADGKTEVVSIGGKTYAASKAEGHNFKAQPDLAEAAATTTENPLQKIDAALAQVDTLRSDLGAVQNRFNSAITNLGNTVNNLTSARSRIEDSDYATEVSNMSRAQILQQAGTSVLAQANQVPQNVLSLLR
# Experiment: BLI; sdAb immobilized on nickel-charged biosensors and dipped into FliC at 250, 125, 62.5, 31.3 and 15.6 nM
# Conditions: both partners purified
binder,measurement,value
B1,Kd,16.2 nM
